Assay results reported in patent US8623997B2, “Variant Hhip1 protein and methods and uses thereof” (Curis, Inc., priority 2008, dated 2014).
Bridge positions count the residues as written; N and C are the ends. Ends that are not written are not given here.

Tests used:
Shh = biological target: T1, Shh (Homo sapiens, UniProt Q15465); assay: NMR HSQC spectroscopy of labeled Shh with L2 loop peptides; type: binding; conditions: peptide 2 mM, 90 μM ^15N-Shh
T1 construct: yielding Shh (residues 29-197) lacking the His6-Tag; His6 (N, cleaved yes); made in house; host or cells: E. coli Rosetta 2, minimal/M9 medium with 15NH4Cl
Description: Shh is in the same orientation as in the Hhip-Shh complex in Panel A. Zn^2+ and Ca^2+ cations are shown. […] Surface representation of Shh with residues within 4.5 Å of Hhip (shaded gray) and Cdon (hatched areas). Area within dotted boarder indicates the boundaries of the Cdon footprint, which overlaps the Hhip binding surface. […] Shh histidine residues are shown as sticks with nitrogen atoms shaded dark. The Hhip L2 loop is shown in transparent surface and Zn^2+ cation is shown. Histidine 35 is not shown since the ordered portion of the Shh structure begins at L40. […] The spectral region of the histidine side chains is shown. […] The average mean Shh649 fluorescence intensity (MFI) of two independent dilution series was plotted versus protein concentration, with error bars denoting standard deviations. Ctrl refers to the His-6 (SEQ ID NO: 87) tagged HGF β protein. […] Shh649 (0.33 nM) was preincubated with 56 nM (170-fold excess) of Hhipβ12 wildtype or L2 mutant proteins, 5E1 or controls then bound to Ptch1 cells (black) or 293 cells (gray), washed and analyzed by FACS. Shh649 binding to Ptch1 cells in the absence of inhibitors was normalized to 100% and the data expressed as a percentage of this signal (average of two independent duplicates with standard deviations). Ctrl and CtrlFc refer to HGF β and the IgG1 isotype control Trastuzumab, respectively. […]

Shh-Flag = biological target: T2, Shh-Flag (Homo sapiens, UniProt Q15465); assay: Peptide competition ELISA for Hhip binding to Shh-Flag
T2 construct: Shh-Flag (residues 25-197 with C-terminal Flag-Tag); His6 (N); made in house; host or cells: Shh-Flag: E. coli Rosetta 2; Hhip: Tni insect cells
Description: In a competition assay, a peptide derived from the Hhip1β12 L2 loop competed with Hipβ1 for Shh binding. Briefly, 96-well Nunc-Immuno MaxiSorp plates (Nalge Nunc International) were coated with 100 μl of anti-Flag M2 antibody (Sigma) at 5 μg/ml in 50 mM sodium carbonate buffer pH 9.6 at 4° C. overnight. Plates were blocked and washed as described for Shh competition ELISA followed by incubation with 100 μL of Shh-Flag at 50 μg/ml for 1 h. After plate washing a serial dilution of Hip-L2 peptide ([…]) (SEQ ID NO:46) starting at 1.2 mM (1:3 dilution) containing 800 nM Hhip1β12 in a final volume of 100 μL was added to the wells to compete for binding to Shh-Flag. After incubation for 1 hr, wells were washed and incubated with anti-His-HRP conjugate (Qiagen, 1:2000 dilution) in blocking buffer. Plate was developed and the data were fit to a 4-parameter equation and the IC50 calculated as described above; assays were carried out in triplicate.

T1 sequence (Q15465 29-197): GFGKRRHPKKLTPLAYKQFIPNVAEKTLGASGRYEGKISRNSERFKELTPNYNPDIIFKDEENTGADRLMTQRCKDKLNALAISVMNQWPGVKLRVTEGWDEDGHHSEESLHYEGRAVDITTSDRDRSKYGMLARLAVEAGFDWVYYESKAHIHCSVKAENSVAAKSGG
T2 sequence (Q15465 25-197): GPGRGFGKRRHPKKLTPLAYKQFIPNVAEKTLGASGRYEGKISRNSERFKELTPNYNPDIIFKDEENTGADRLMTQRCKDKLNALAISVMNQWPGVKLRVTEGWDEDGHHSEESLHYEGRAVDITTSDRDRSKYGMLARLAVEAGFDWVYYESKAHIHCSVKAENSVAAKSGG

## GCQLTKQRLVDADGIINPCG (disulfide 2-19 (inferred); listed as Homo sapiens) [Ptch L2 peptide]
Shh
  binding to Shh by ^15N, ^1H HSQC (in words): binds Shh in a manner similar to that of the Hhip1β12 L2 peptide
Shh-Flag
  competition with Hipβ1 for Shh binding (in words): unable to compete with Hipβ1 for Shh binding
